Columns and labels:
[1] = molecular target: Strep-3xFLAG-DotJ (E. coli) (L. pneumophila); experiment: SEC
[2] = molecular target: DotIC, C-terminal periplasmic domain of DotI (residues 73-212) (L. pneumophila); experiment: SEC-MALS
[3] = molecular target: DotIC, C-terminal periplasmic domain of DotI (residues 73-212) (L. pneumophila); experiment: crystal structure
[4] = molecular target: His-TraM (R64 TraM, full length) (plasmid R64); experiment: SEC-MALS

Substance: DotI (produced in E. coli with Strep-3xFLAG-DotJ) (natural protein)
- stoichiometry N (DotI per DotJ) [1]: 1.87

Substance: DotIC, C-terminal periplasmic domain of DotI (residues 73-212) (domain or fragment)
- stoichiometry N [2]: 16
- stoichiometry N (subunits in a ring (two rings stacked)) [3]: 8

Substance: His-TraM (R64 TraM, full length) (natural protein)
- stoichiometry N [4]: 6
